Ends that are not written are not given here.

The nature of data set [1]: Zeta potential measurement (electrophoretic light scattering). It counts as physicochemical. As to the method:
(§1) Sample characteristics (particle size, polydispersity and zeta-potential) were measured by a dynamic light scattering method using Malvern Zeta Sizer Nano-S90 instrument according to the manufacturer recommendations. Briefly, hydrodynamic diameter (dh) and polydispersity index (PDI) of nanogel/microgels were obtained for 1 mg/mL aqueous solutions at 25° C. in triplicates after sonication for 30 min and centrifugation at 12,000 rpm. Zeta-potential of the samples was measured for the same solutions in standard 1 cm-cuvettesusing zeta-potential option in the company's software. Average of five measurements±SD was registered.
(§2) Peptide concentration was estimated by BCA (Pierce) protein assay against a standard curve of free peptide. Zeta potential and size was measured on non-rhodamine product using electrophoretic light scattering and dynamic light scattering, respectively (Zetasizer, Malvern). The Z averaged particle size is 15 nm and the full width at half maximum of the distribution peak is 24 nm. Zeta potentials for 1-Arg, 2-Arg, 3-Arg and 4-Arg peptide conjugates were 0.07 mV, 2.2 mV, 4.6 mV and 9.2 mV respectively (Table 2).

A short description of data set [2]: Rabbit eye clearance of Cy7-tagged nanoparticles by in vivo imaging (IVIS). As to the method:
FIG. 8. Slowed rabbit eye clearance in vivo with Cy7-tagged 3R-peptide CDEX conjugate. 20 μl of anchor peptide amino-PEG8-RRYRL-amide (SEQ ID NO:5) conjugate to CDEX (2.5 mg/ml) along with conjugated 0.05 moles/particle Cy7-amine was injected into rabbit eyes on day one. Left eye 14 peptides/particle, right eye 21 peptides/particle.
FIG. 10. In vivo charge and zeta potential-dependent loss of NP from rabbit vitreous expressed as a percentage of the first measured photon flux at day 10 post-injection (taken as day 0). Volume of injection: 25 μl; nanocarrier concentration: 3 mg/ml. [Control: CDEX70-0: (n=2). CDEX70-2R; 64 peptides per particle by BCA (n=3) and CDEX70-3R; 61 peptides per particle by BCA (n=3)]. Half-lives: CDEX-0: 4 days; CDEX-2R: 7 days; CDEX70-3R: 13 days. 2R and 3R peptides are respectively (SEQ ID NO:4) and (SEQ ID NO:5) linked as carbamates of 3pyrrolidineCO-amido-PEG8-CO-peptide to Cy7-CDEX70. Cy7 amine is carbamate-linked at <1 mole/mole NP.
Thus BCA protein analysis of increasing peptide, with time in filtrate after 30 kDa filtration of a loaded carrier sample in buffer estimates the half-life for peptide release in buffer. For confirmation in actual vitreous humor (e.g., rabbit) at time points post injection LC-MS estimation of the peptide in vitreous extract follows precipitation of excess HA after adding 3 volumes of ethanol. […] Free intravitreal peptide is assayed after centrifugation via 30 kDa MWCO spin filter.
Retention of the NP in vitreous was tested in vivo in rabbits. 25 μl of CDEX70-2R-Cy7 (SEQ ID NO:4) 3 mg/ml or CDEX70-3R-Cy7 (SEQ ID NO:5) 3 mg/ml was administered by intravitreal injection and imaged via an IVIS scan after 4 weeks and nine weeks. Left: 4-week experiment. (See FIG. 9). The in vivo diffusion dependent loss of NP from rabbit vitreous expressed as percentage of the first measurement at day 10 post-injection (taken as day 0) is provided in FIG. 10. The determined half-lives of the NP is as follows: CDEX-0-Cy7: 4 days; CDEX-2R-Cy7: 7 days; CDEX70-3R-Cy7: 13 days. In vivo diffusion-dependent loss of NP from rabbit vitreous expressed as Flux of the first measurement at day 10 post-injection (taken as day 0) of CDEX70-2R-Cy7 at 4 different concentrations [Control: 0 mg/ml (n=6). 3 mg/ml (n=3).

The nature of data set [3]: Particle size measurement (dynamic light scattering). The data set is classed as physicochemical. As to the method: as §1, §2
The conditions of data set [4]: human vitreous; cited from earlier work.
The subject of data set [5] is laser-induced choroidal neovascularization (CNV). The note with it: single intravitreal injection of 1-ul 4 mg/ml 2 days before laser wounding; angiogenesis markers 14 days later. The procedure: FIG. 12B. […] A single injection of 1-ul 4 mg/ml peptide (SEQ ID NO:6) or control is injected into mouse vitreous 2 days before laser wounding of the retina. Angiogenesis markers are detected by antibody stain, 14 days later.

In data set [1], “CDEX-3R-Cy7: Cy7-CDEX70 carbamate-linked to 3-pyrrolidine-CONH-PEG(8)-CO-Arg-Arg-Tyr-Arg-Leu-NH2 (SEQ ID NO:5) (RRYRL-NH2; not fully specified (N-terminus); printed as 3-pyrrolidine-CONH-PEG(8)-CO-Arg-Arg-Tyr-Arg-Leu-NH2; also: carbamate-linked to Cy7-CDEX70 nanocarrier)” gave a Zeta potential of 6.34 ± 1.28 mV. For the same substance, the “half-life of NP in rabbit vitreous” value in data set [2] (intravitreal 25 μl, 3 mg/ml, photon flux relative to day 10 post-injection (taken as day 0)) is recorded as 13 days. Moreover, the “retention in eye compared with 2R peptide conjugate at similar peptide loading” value in data set [2] (rabbit, IVIS scans after 4 and 9 weeks) was “retained longer in the eye”. For the same substance, the Particle size in data set [3] was found to be 81.69 ± 7.44 nm.

“CDEX-AP3: CDI-activated CDEX nanogel carbamate-linked to AP3, amino-PEG(12)-CO-Arg-Arg-Ser-Arg-amide (SEQ ID NO:19) (RRSR-NH2; not fully specified (N-terminus); printed as amino-PEG(12)-CO-Arg-Arg-Ser-Arg-amide; also: carbamate-linked to CDI-activated CDEX nanogel)”: the Zeta potential in data set [1] stood at 4.58 mV. This substance also had a Particle size in data set [3] of 124 ± 1.4 nm.

Regarding “Cy7-tagged 3R-peptide CDEX conjugate: Anchor peptide amino-PEG8-RRYRL-amide (SEQ ID NO:5) conjugated to CDEX with 0.05 moles/particle Cy7-amine; 14 or 21 peptides/particle (RRYRL-NH2; not fully specified (N-terminus); printed as amino-PEG8-RRYRL-amide; also: Cy7-amine on CDEX particle)”, the fluorescence lost in data set [2] (rabbit left eye, 14 peptides/particle, 20 μl of 2.5 mg/ml) is given as more than 90%. The “residence in eye” value in data set [2] (rabbit right eye, 21 peptides/particle, 20 μl of 2.5 mg/ml) was “longer residence of conjugate in eye”.

As to “Ranibizumab: a VEGF inhibitor for treatment of advanced AMD”, the half-life in vitreous result in data set [4] is given as “approximately 9 days”.

Regarding “adipic-Sar-Tyr-Asn-Leu-Tyr-Arg-Val-Arg-Ser-NH2 [SEQ ID NO:6]”, the retinal protective activity result in data set [5] is listed as “reduction of laser-induced choroidal neovascularization (CNV)”.

The values are drawn from patent publication US11207423B2, “Nanocarriers having surface conjugated peptides and uses thereof for sustained local release of drugs” (Northwestern University, priority 2016, dated 2021).
